Data set [1] deals with T1, AfAgo;AfAgo-N (Archaeoglobus fulgidus …, UniProt O28951;A0A075WKW4 1-427;1-250, |). The data set is described as follows: cryo-EM; 3.56 A; EMSA: 40 mM Tris-acetate, 1 mM EDTA, pH 8.4, 5 mM Mg(OAc)2, 0.1 mg/ml BSA, 1 mM DTT, 10% glycerol, room temperature (25 C), 1 h. The conditions noted are these: protein: recombinant;recombinant; tags: ;His6-TEV (N-terminal); copies: 1;1; blunt. (A gel shift assay detects complexes by their altered migration in electrophoresis.)

In data set [2] the target is T1, AfAgo;AfAgo-N. The data set is described as follows: SEC-SAXS; 5 mM Mg2+; SASDRX8; EMSA: 40 mM Tris-acetate, 1 mM EDTA, pH 8.4, 5 mM Mg(OAc)2, 0.1 mg/ml BSA, 1 mM DTT, 10% glycerol, room temperature (25 C), 1 h. The following applies: protein: recombinant;recombinant; tags: ;His6-TEV (N-terminal); copies: 1;1; blunt, self-complementary. In general terms: SEC sorts molecules by how far they enter the pores of the column.

Data set [3] deals with T1, AfAgo;AfAgo-N. The data set is described as follows: EMSA; 5 mM Mg2+; EMSA: 40 mM Tris-acetate, 1 mM EDTA, pH 8.4, 5 mM Mg(OAc)2, 0.1 mg/ml BSA, 1 mM DTT, 10% glycerol, room temperature (25 C), 1 h. The following applies: protein: recombinant;recombinant, tags: ;His6-TEV (N-terminal), copies: 1;1, label: 5'-32P.
For the next data set, the target named is T2, AfAgo (Archaeoglobus fulgidus DSM4304, UniProt O28951 1-427).
T2 sequence: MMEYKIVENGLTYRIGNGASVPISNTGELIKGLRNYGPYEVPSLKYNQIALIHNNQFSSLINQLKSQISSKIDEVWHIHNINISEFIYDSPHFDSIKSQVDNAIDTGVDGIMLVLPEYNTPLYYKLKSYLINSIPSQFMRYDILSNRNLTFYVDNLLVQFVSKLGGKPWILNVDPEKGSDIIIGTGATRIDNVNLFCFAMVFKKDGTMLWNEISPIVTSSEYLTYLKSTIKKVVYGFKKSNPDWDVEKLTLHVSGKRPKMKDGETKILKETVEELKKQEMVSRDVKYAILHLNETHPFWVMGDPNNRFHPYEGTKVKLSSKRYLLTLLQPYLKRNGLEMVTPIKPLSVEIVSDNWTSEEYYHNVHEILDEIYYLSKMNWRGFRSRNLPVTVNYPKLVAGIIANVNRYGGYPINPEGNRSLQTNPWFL
The data set is described as above. The conditions noted are these: protein: recombinant; label: 5'-32P; blunt.

Data set [4] has as its target T1, AfAgo;AfAgo-N. The data set is described as follows: EMSA; preloaded guide, 5 mM Mg2+; EMSA: 40 mM Tris-acetate, 1 mM EDTA, pH 8.4, 5 mM Mg(OAc)2, 0.1 mg/ml BSA, 1 mM DTT, 10% glycerol, room temperature (25 C), 1 h. The following applies: protein: recombinant;recombinant; tags: ;His6-TEV (N-terminal); copies: 1;1; label: 5'-32P target; g1-g8 complementary.
Data set [5] deals with T1, AfAgo;AfAgo-N. The data set is described as follows: X-ray crystallography; 2.5 A; 5 mM Mg2+; EMSA: 40 mM Tris-acetate, 1 mM EDTA, pH 8.4, 5 mM Mg(OAc)2, 0.1 mg/ml BSA, 1 mM DTT, 10% glycerol, room temperature (25 C), 1 h. The following applies: protein: recombinant;recombinant; tags: ;His6-TEV (N-terminal); copies: 1;1; 2 strands partially annealed, 3 bp, in crystal.
Data set [6] concerns the target T1, AfAgo;AfAgo-N. The data set is described as follows: cryo-EM; 2.83 A; EMSA: 40 mM Tris-acetate, 1 mM EDTA, pH 8.4, 5 mM Mg(OAc)2, 0.1 mg/ml BSA, 1 mM DTT, 10% glycerol, room temperature (25 C), 1 h. The following applies: protein: recombinant;recombinant; tags: ;His6-TEV (N-terminal); copies: 1;1; 30 nt guide on 51 nt target with target overhangs.

B1: g17/t17 MZ-1800/MZ-1455 (DNA:RNA)
RNA: AUUGUACACGGCCGAAU
DNA: ATTCGGCCGTGTACAAT
modifications: 5'-phosphate guide
Turning to B1, the binding result with AfAgo;AfAgo-N [1] was “binds”.

B2: MZ-1288 14 bp DNA (dsDNA)
DNA 1: ATTGTGGCCACAAT
DNA 2: ATTGTGGCCACAAT
modifications: 5'-phosphate
Consider B2, for which the binding result with AfAgo;AfAgo-N [2] was “binds”.

B3: dsDNA MZ-1447/1455 (dsDNA)
DNA 1: ATTGTACACGGCCGAAT
DNA 2: ATTCGGCCGTGTACAAT
modifications: 5'-phosphate
With B3, the binding result in the data set with AfAgo;AfAgo-N [3] (blunt) and with AfAgo was “binds” in each case.

B4: RNA/DNA MZ-1480/1455 (DNA:RNA)
RNA: AUUGUACACGGCCGAAU
DNA: ATTCGGCCGTGTACAAT
modifications: 5'-phosphate
With B4, the binding result in the data set with AfAgo;AfAgo-N [3] (blunt) and with AfAgo was “binds” throughout.

B5: ssRNA MZ-1480 (ssRNA)
RNA: AUUGUACACGGCCGAAU
For the molecule B5, the binding result with AfAgo;AfAgo-N [3] (single-stranded) is given as “binds”.

B6: gRNA MZ-1480 / tDNA MZ-1560 (DNA:RNA)
RNA: AUUGUACACGGCCGAAU
DNA: CGGAATATATGTACAAT
modifications: 5'-phosphate guide
Take B6: the binding result with AfAgo;AfAgo-N [4] is “binds”.

B7: ssDNA MZ-1447 (ssDNA)
DNA: ATTGTACACGGCCGAAT
With B7, in the data set with AfAgo;AfAgo-N [3] (single-stranded), the binding result is “binds”.

B8: GS-851 (ssDNA)
DNA: ATCGACCAGGCTACG
modifications: 5'-phosphate
Take B8: the binding result with AfAgo;AfAgo-N [5] is recorded as “binds”.

B9: g30/t51 MZ-1745/MZ-1747 (DNA:RNA)
RNA: AGGAGGGCGGAGCCUAUGGAAAAACGCCAC
DNA: GCCGCGCCGGTGGCGTTTTTCCATAGGCTCCGCCCTCCTGCCAGAGTTCGC
modifications: 5'-phosphate guide
Regarding B9, the binding result with AfAgo;AfAgo-N [6] is “binds”.

(Values after PMC10954474, “https://orcid.org/0000-0002-6027-2265 Manakova Elena Institute of Biotechnology, Life Sciences Center, Vilnius University, Sauletekio av. 7, LT-10257, Vilnius, Lithuania”.)
